In publication doi:10.1101/2020.09.17.302455 one finds percent of BMP2 absorbed data, which are given here for one molecule.

The target in the test is human plasma fibronectin (human). Briefly: ELISA. Background: An ELISA detects its analyte on a solid surface through an enzyme-linked reagent.

B1: bone morphogenetic protein 2 (ligand)
chain: QAKHKQRKRLKSSCKRHPLYVDFSDVGWNDWIVAPPGYHAFYCHGECPFPLADHLNSTNHAIVQTLVNSVNSKIPKACCVPTELSAISMLYLDENEKVVLKNYQDMVVEGCGCR
For the molecule B1, the percent of BMP2 absorbed fell in the range of 70 to 80%.
